Numbering of substitutions follows the chain as printed. Names and notes keep the numbering of the source.
Experiments:
[1] = target: human ATP13A1 mutated at the border between the membrane region and the ER lumen (human) (UniProt Q9HD20); assay: co-IP
[2] = target: yeast EMC with Emc5-GFP, Emc10 deleted (S. cerevisiae) (UniProt P25574); assay: co-IP
[3] = target: yeast EMC with Emc5-GFP, Emc7 deleted (S. cerevisiae, UniProt P25574;P47133;P36039;P53073;P40540;Q12431;Q12025); assay: co-IP
[4] = target: yeast EMC with Emc5-TSII, recombinant from insect cells (S. cerevisiae) (UniProt P25574); assay: co-IP
[5] = target: T1, yeast Spf1-FLAG, recombinant from insect cells (S. cerevisiae, UniProt P39986); assay: cryo-EM structure
T1 sequence: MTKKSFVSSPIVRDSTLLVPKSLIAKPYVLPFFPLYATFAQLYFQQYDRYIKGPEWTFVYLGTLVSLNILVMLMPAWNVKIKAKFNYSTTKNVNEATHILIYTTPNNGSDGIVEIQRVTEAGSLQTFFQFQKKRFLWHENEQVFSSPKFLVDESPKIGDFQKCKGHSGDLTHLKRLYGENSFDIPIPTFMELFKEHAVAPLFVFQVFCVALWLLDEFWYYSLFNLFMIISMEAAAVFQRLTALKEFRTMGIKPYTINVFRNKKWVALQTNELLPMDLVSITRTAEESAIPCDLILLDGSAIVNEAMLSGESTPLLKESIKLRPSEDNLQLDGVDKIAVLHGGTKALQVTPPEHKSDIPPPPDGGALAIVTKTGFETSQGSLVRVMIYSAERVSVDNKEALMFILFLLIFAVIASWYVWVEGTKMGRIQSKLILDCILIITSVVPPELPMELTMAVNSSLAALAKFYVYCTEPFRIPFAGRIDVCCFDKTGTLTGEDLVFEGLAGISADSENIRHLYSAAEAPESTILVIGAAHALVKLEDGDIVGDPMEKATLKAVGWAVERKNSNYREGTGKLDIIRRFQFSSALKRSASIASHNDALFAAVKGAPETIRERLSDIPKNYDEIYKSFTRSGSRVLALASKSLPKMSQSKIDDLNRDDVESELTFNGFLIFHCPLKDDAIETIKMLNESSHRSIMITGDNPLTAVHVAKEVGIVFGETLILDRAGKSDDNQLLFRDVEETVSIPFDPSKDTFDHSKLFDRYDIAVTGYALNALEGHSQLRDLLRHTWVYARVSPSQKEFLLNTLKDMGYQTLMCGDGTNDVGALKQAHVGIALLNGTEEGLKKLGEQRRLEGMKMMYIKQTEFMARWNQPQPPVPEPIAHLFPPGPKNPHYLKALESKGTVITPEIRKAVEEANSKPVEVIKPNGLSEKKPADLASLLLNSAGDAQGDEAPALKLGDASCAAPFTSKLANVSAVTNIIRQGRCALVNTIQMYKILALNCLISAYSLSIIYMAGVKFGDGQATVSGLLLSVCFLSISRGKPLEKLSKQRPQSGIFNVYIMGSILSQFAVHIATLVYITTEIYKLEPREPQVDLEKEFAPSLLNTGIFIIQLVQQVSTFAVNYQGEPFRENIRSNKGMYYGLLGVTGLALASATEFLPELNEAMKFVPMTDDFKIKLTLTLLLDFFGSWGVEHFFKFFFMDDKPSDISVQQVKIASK

yeast EMC with Emc5-GFP, Emc7 deleted, sequence (P25574 25-760, stated change not applied, chain 1 of 4): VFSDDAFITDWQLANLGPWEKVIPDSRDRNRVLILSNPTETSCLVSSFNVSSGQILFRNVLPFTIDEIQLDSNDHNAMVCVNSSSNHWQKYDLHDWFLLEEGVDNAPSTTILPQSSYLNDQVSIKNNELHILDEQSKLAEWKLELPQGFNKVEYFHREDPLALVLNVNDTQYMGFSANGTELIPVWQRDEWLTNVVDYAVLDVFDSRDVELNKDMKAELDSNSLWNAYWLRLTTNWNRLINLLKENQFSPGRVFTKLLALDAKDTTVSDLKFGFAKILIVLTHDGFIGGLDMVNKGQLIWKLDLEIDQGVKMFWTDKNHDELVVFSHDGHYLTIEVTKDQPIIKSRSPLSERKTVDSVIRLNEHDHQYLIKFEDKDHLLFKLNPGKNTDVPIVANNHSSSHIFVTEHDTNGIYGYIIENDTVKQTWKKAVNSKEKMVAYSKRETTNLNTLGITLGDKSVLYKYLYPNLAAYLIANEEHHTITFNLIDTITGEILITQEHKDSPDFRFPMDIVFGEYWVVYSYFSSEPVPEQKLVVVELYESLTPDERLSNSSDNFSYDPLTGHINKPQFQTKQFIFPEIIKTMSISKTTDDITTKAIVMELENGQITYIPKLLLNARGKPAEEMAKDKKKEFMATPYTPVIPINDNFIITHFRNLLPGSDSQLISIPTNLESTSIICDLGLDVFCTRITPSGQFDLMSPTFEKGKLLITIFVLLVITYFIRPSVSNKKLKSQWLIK
yeast EMC with Emc5-GFP, Emc7 deleted, sequence (P47133 whole entry, stated change not applied, chain 2 of 4): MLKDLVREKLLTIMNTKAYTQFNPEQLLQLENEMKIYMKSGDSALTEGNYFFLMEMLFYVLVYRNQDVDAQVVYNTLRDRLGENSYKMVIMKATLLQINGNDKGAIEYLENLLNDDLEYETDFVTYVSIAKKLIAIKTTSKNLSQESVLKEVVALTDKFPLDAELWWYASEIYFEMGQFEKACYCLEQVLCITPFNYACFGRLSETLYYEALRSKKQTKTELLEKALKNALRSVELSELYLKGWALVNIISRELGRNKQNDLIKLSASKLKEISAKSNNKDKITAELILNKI
yeast EMC with Emc5-GFP, Emc7 deleted, sequence (P40540 whole entry, stated change not applied, chain 5 of 4): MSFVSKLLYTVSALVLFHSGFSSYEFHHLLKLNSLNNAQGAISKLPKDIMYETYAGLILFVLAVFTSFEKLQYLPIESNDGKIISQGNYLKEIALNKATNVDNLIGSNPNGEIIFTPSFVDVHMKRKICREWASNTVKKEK
yeast EMC with Emc5-GFP, Emc7 deleted, sequence (Q12431 whole entry, stated change not applied, chain 6 of 4): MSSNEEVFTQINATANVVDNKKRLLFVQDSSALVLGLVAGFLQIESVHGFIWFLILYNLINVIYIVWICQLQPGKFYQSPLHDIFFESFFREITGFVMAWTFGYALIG
human ATP13A1 mutated at the border between the membrane region and the ER lumen (human), sequence (Q9HD20 whole entry, stated change not applied): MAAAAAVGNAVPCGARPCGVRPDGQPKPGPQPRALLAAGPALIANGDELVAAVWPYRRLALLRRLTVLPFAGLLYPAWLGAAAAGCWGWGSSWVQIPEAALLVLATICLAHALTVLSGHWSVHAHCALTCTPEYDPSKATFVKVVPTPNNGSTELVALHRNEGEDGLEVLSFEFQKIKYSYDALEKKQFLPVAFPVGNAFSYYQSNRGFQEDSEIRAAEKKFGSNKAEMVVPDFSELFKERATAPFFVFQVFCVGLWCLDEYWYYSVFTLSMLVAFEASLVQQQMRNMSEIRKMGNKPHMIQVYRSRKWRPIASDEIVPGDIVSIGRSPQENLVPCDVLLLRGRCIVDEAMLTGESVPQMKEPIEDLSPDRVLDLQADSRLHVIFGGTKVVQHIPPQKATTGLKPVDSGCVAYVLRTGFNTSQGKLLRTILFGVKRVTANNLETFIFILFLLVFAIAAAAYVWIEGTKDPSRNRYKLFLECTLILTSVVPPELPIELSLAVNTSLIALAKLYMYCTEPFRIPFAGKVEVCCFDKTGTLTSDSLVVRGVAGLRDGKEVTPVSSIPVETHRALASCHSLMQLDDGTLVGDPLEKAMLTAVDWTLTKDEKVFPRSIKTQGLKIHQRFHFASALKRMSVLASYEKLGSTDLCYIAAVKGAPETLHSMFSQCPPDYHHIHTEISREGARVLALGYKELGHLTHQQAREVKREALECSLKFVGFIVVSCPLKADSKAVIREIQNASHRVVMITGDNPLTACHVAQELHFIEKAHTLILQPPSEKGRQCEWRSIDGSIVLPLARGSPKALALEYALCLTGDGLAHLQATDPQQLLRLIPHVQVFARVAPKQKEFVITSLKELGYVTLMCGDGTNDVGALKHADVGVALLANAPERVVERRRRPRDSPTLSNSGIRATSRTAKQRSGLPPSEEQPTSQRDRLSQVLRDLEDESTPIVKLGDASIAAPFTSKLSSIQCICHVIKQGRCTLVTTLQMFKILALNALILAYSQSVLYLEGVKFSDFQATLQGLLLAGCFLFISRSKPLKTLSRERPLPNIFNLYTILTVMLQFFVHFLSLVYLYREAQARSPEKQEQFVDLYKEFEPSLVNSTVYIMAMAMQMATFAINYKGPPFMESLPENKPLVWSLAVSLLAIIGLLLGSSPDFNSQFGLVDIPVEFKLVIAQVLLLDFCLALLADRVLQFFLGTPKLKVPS

Molecule: human EMC, endogenous, HEK293T (from UniProt Q8N766;Q15006;Q9P0I2;Q5J8M3;Q8N4V1;Q9BV81;Q9NPA0;O43402;Q5UCC4) (complex)
- interaction with the hEMC relative to wt [1]: 0.5 of wt

B1: Spf1 with C-terminal triple HA-tag, endogenous locus, S. cerevisiae (natural protein)
chain: T1 sequence
- Spf1 to Emc5 ratio in the IP, percent of wt [2]: 48%
- Spf1 to Emc5 ratio in the IP, percent of wt [3]: 40%

B2: yeast Spf1 E1087A, recombinant from insect cells (natural protein)
chain: T1 sequence with E1087A
- EMC:Spf1 interaction, percent of wt [4]: 30%

B3: yeast Emc3, subunit in the recombinant EMC:Spf1 complex (natural protein)
chain: MLLDDQLKYWVLLPISIVMVLTGVLKQYIMTLITGSSANEAQPRVKLTEWQYLQWAQLLIGNGGNLSSDAFAAKKEFLVKDLTEERHLAKAKQQDGSQAGEVPNPFNDPSMSNAMMNMAKGNMASFIPQTIIMWWVNHFFAGFILMQLPFPLTAKFKEMLQTGIICQDLDVRWVSSISWYFISVLGLNPVYNLIGLNDQDMGIQAGIGGPQGPQGPPQSQVDKAMHAMANDLTIIQHETCLDNVEQRVLKQYM
- binding result [5]: binds

B4: yeast Emc10, subunit in the recombinant EMC:Spf1 complex (natural protein)
chain: ADILQLSYSDDAKDAIPLGTFEIDSTSDGNVTVTTVNIQDVEVSGEYCLNAQIEGKLDMPCFSYMKLRTPLKYDLIVDVDEDNEVKQVSLSYDETNDAITATVRYPEAGPTAPVTKLKKKTKTYADKKASKNKDGSTAQFEEDEEVKEVSWFQKNWKMLLLGLLIYNFVAGSAKKQQQGGAGADQKTE
- binding result [5]: binds

B5: yeast Emc4, subunit in the recombinant EMC:Spf1 complex (natural protein)
chain: MSEQEPYEWAKHLLDTKYIEKYNIQNSNTLPSPPGFEGNSSKGNVTRKQQDATSQTTSLAQKNQITVLQVQKAWQIALQPAKSIPMNIFMSYMSGTSLQIIPIMTALMLLSGPIKAIFSTRSAFKPVLGNKATQSQVQTAMFMYIVFQGVLMYIGYRKLNSMGLIPNAKGDWLPWERIAHYNNGLQWFSD
- binding result [5]: binds
